Measured values published in US20140294898A1.

Molecular target: human PD-L1 on cells (human) (UniProt Q9NZQ7)
Test: cell-based or functional assay

Chain of human PD-L1 on cells (human) (Q9NZQ7 19-290): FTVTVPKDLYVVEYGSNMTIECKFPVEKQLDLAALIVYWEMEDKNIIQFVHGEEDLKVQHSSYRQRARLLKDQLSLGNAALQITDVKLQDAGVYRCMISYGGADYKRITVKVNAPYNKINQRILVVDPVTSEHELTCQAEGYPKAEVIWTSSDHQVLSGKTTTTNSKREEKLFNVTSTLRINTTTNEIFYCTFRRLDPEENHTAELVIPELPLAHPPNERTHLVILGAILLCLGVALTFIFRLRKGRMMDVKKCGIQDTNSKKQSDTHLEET

IFNγ secretion by CMV-specific T cells (ELISA), EC50: 0.6 nM
Substance: anti-PD-L1 antibody (MDX-1105)
